In patent US20100322950:

Columns and labels:
[1] = tested on: recombinant human osteopontin (OPN), full-length
[2] = target: tissue inhibitor of matrix metalloproteinase-1 (TIMP-1) (UniProt P01033)
Sequence of tissue inhibitor of matrix metalloproteinase-1 (TIMP-1) (P01033 24-207): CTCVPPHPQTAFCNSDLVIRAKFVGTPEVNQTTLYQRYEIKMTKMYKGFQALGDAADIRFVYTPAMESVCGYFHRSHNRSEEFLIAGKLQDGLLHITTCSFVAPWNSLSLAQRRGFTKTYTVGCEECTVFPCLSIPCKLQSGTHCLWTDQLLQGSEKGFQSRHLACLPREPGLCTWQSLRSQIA

Sequence of human matrix metalloproteinase-9 (MMP-9) (Calbiochem) (chain, as listed by the source): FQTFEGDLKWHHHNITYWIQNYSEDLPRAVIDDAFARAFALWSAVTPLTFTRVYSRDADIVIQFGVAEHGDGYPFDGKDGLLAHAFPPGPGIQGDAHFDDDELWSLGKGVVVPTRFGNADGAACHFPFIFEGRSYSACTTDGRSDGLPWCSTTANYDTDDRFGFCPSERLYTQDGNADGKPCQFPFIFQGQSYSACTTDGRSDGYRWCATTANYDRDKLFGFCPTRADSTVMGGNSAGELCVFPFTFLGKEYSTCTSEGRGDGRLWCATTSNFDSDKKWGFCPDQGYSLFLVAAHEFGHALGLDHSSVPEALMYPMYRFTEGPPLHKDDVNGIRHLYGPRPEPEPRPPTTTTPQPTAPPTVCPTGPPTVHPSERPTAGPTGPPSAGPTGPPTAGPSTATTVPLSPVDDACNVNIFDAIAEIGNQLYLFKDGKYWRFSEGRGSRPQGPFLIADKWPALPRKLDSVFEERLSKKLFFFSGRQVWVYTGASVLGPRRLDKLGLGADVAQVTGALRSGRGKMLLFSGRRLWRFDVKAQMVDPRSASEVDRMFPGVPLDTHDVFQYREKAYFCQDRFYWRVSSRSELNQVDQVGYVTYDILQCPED
Sequence of recombinant human osteopontin (OPN), full-length (chain, as listed by the source): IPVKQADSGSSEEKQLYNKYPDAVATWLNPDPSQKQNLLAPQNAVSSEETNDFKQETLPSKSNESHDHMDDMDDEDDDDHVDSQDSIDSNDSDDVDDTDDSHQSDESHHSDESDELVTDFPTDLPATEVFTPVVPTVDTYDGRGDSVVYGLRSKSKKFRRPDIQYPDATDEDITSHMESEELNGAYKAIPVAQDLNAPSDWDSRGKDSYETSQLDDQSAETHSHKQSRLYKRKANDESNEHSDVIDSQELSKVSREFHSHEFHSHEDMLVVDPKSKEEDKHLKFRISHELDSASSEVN

In the case of “human matrix metalloproteinase-9 (MMP-9) (Calbiochem)”, the “in vitro proteolytic cleavage of OPN (SDS-PAGE, N-terminal microsequencing, western blot)” value [1] is reported as “Recombinant MMP-9 cleaved OPN at two predominant sites in vitro, residues 166 and 210, resulting in 4 identified fragments” and the “MMP-9 cleavage of OPN (formation of the OPN-5 kD fragment), TIMP-1 added to the reaction” value [2] is reported as “could not be detected in cleavage reactions partially inhibited by the concomitant addition of EDTA, a naturally-occurring inhibitor of MMP-9 (tissue inhibitor of matrix metalloproteinase-1, or TIMP-1), or the hydroxamate MMP-9 inhibitor I”.
